Key:
[1] = biological target: T1, … (VLD) WT1 peptide pulsed on target cells (HLA-02.01 positive T2 cell line; OCI-AML3); assay: cell-based or functional assay
[2] = biological target: T2, … (RMF) WT1 peptide pulsed on target cells (HLA-02.01 positive T2 cell line; OCI-AML3); assay: cell-based or functional assay
[3] = biological target: T1, … (VLD) WT1 peptide pulsed on target …; assay: cell-based or functional assay; remark: listed apart in the source
[4] = biological target: T2, … (RMF) WT1 peptide pulsed on target …; assay: cell-based or functional assay; remark: listed apart in the source
[5] = biological target: T3, VLD-Tetramer (pMHC tetramer with WT1 peptide …); assay: flow cytometry, VLD-Tetramer staining of engineered T cells; TRAC + TRBC RNP
T3 construct: Staining reagent; also called VLD (Wilms' tumor antigen) tetramer; TCR specific pMHC tetramer
Description: (§1) Four to 12 days after RNP nucleofection, edited T cells (200 ul/200,000 cells) were collected in a 96 well round bottom plate and spun down at 500 g for 5 minutes. Cells were then resuspended in an antibody mixture containing a combination of antibodies targeting CD3, CD4, CD8, CD45RO, CD45RA, CD27, CCR7, CD62L, and/or the TCR specific pMHC tetramer or TCR specific Vbeta chain antibody. The mixture was incubated for 45 minutes at room temperature in the dark. Samples were spun down at 500 g for 5 minutes, cell pellets collected, and resuspended in 1:10,000 DAPI (Biolegend—#422801) in FACS buffer. Flow cytometry was then performed using the cytoflex according to the manufacturer's instructions.
(§2) T cells were evaluated with additional engineered TCRs for the impact of endogenous beta chains on pairing of both the inserted alpha chain and inserted beta chain. The experiment was performed as described herein except tetramer staining was used to measure MFI and the AAV inserts in Table 31 were used for transduction.

[6] = biological target: T3, VLD-Tetramer (pMHC tetramer with WT1 …); assay: flow cytometry, VLD-Tetramer staining of engineered T cells; TRAC RNP only
Description: as §1, §2

[7] = biological target: T1, … (VLD) WT1 peptide pulsed on target …; assay: cell-based or functional assay; remark: listed apart in the source
[8] = biological target: T2, … (RMF) WT1 peptide pulsed on target …; assay: cell-based or functional assay; remark: listed apart in the source
[9] = biological target: T1, … (VLD) WT1 peptide pulsed on target …; assay: cell-based or functional assay; remark: listed apart in the source
[10] = biological target: T1, … (VLD) WT1 peptide pulsed on target …; assay: cell-based or functional assay; remark: listed apart in the source

% CD4+ TNFa+ IFNg+; TRAC/TRBC; 0 nM VLD; T2 [1]: 2.1% | % CD4+ TNFa+ IFNg+; TRAC/TRBC; 0.005 nM VLD; T2 [1]: 1.6% | % CD4+ TNFa+ IFNg+; TRAC/TRBC; 0.05 nM VLD; T2 [1]: 0.9% | % CD4+ TNFa+ IFNg+; TRAC/TRBC; 0.5 nM VLD; T2 [1]: 0.6% | % CD4+ TNFa+ IFNg+; TRAC/TRBC; 5 nM VLD; T2 [1]: 0.2% | % CD4+ TNFa+ IFNg+; TRAC/TRBC; 50 nM VLD; T2 [1]: 0.1% | % CD8+ TNFa+ IFNg+; TRAC/TRBC; 0 nM VLD; T2 [1]: 0.4% | % CD8+ TNFa+ IFNg+; TRAC/TRBC; 0.005 nM VLD; T2 [1]: 7.6% | % CD8+ TNFa+ IFNg+; TRAC/TRBC; 0.05 nM VLD; T2 [1]: 28.7% | % CD8+ TNFa+ IFNg+; TRAC/TRBC; 0.5 nM VLD; T2 [1]: 46.5% | % CD8+ TNFa+ IFNg+; TRAC/TRBC; 5 nM VLD; T2 [1]: 63.1% | % CD8+ TNFa+ IFNg+; TRAC/TRBC; 50 nM VLD; T2 [1]: 71.4% | % CD4+ TNFa+ IFNg+; TRAC/TRBC; 50 nM RMF; T2 [2]: 2.2% | % CD8+ TNFa+ IFNg+; TRAC/TRBC; 50 nM RMF; T2 [2]: 0.4% | % CD4+ CD107a+; TRAC/TRBC; 0 nM VLD; T2 [3]: 4.62% | % CD4+ CD107a+; TRAC/TRBC; 0.005 nM VLD; T2 [3]: 5.06% | % CD4+ CD107a+; TRAC/TRBC; 0.05 nM VLD; T2 [3]: 4.23% | % CD4+ CD107a+; TRAC/TRBC; 0.5 nM VLD; T2 [3]: 4.74% | % CD4+ CD107a+; TRAC/TRBC; 5 nM VLD; T2 [3]: 4.44% | % CD4+ CD107a+; TRAC/TRBC; 50 nM VLD; T2 [3]: 4.52% | % CD8+ CD107a+; TRAC/TRBC; 0 nM VLD; T2 [3]: 3.15% | % CD8+ CD107a+; TRAC/TRBC; 0.005 nM VLD; T2 [3]: 12.2% | % CD8+ CD107a+; TRAC/TRBC; 0.05 nM VLD; T2 [3]: 34.2% | % CD8+ CD107a+; TRAC/TRBC; 0.5 nM VLD; T2 [3]: 53.3% | % CD8+ CD107a+; TRAC/TRBC; 5 nM VLD; T2 [3]: 65.8% | % CD8+ CD107a+; TRAC/TRBC; 50 nM VLD; T2 [3]: 73.2% | % CD4+ CD107a+; TRAC/TRBC; 50 nM RMF; T2 [4]: 4.67% | % CD8+ CD107a+; TRAC/TRBC; 50 nM RMF; T2 [4]: 2.82% | Mean % Tetramer+ (CD4+) [5]: 85.3% | Mean % Tetramer+ (CD8+) [5]: 81.9% | Mean Tetramer MFI (CD4+) [5]: 251000 MFI | Mean Tetramer MFI (CD8+) [5]: 190000 MFI | Mean % Tetramer+ (CD4+) [6]: 77.5% | Mean % Tetramer+ (CD8+) [6]: 73.6% | Mean Tetramer MFI (CD4+) [6]: 101000 MFI | Mean Tetramer MFI (CD8+) [6]: 102000 MFI | Caspase 3/7 integrated intensity; TRAC only; 0 nM VLD; T2 [7]: 12200 | Caspase 3/7 integrated intensity; TRAC only; 0.005 nM VLD; T2 [7]: 21000 | Caspase 3/7 integrated intensity; TRAC only; 0.05 nM VLD; T2 [7]: 199000 | Caspase 3/7 integrated intensity; TRAC only; 0.5 nM VLD; T2 [7]: 1.01e+06 | Caspase 3/7 integrated intensity; TRAC only; 5 nM VLD; T2 [7]: 1.14e+06 | Caspase 3/7 integrated intensity; TRAC only; 50 nM VLD; T2 [7]: 1.28e+06 | Caspase 3/7 integrated intensity; TRAC only; 500 nM VLD; T2 [7]: 1.31e+06 | Caspase 3/7 integrated intensity; TRAC/TRBC; 0 nM VLD; T2 [7]: 12400 | Caspase 3/7 integrated intensity; TRAC/TRBC; 0.005 nM VLD; T2 [7]: 21000 | Caspase 3/7 integrated intensity; TRAC/TRBC; 0.05 nM VLD; T2 [7]: 311000 | Caspase 3/7 integrated intensity; TRAC/TRBC; 0.5 nM VLD; T2 [7]: 964000 | Caspase 3/7 integrated intensity; TRAC/TRBC; 5 nM VLD; T2 [7]: 1.26e+06 | Caspase 3/7 integrated intensity; TRAC/TRBC; 50 nM VLD; T2 [7]: 1.04e+06 | Caspase 3/7 integrated intensity; TRAC/TRBC; 500 nM VLD; T2 [7]: 1.19e+06 | Caspase 3/7 integrated intensity; TRAC only; 500 nM RMF; T2 [8]: 4950 | Caspase 3/7 integrated intensity; TRAC/TRBC; 500 nM RMF; T2 [8]: 6800 | IL2 release; TRAC only; 0 nM VLD; T2 [9]: 338 pg/mL | IL2 release; TRAC only; 0.005 nM VLD; T2 [9]: 326 pg/mL | IL2 release; TRAC only; 0.05 nM VLD; T2 [9]: 284 pg/mL | IL2 release; TRAC only; 0.5 nM VLD; T2 [9]: 305 pg/mL | IL2 release; TRAC only; 5 nM VLD; T2 [9]: 442 pg/mL | IL2 release; TRAC only; 50 nM VLD; T2 [9]: 1050 pg/mL | IL2 release; TRAC only; 500 nM VLD; T2 [9]: 1570 pg/mL | IL2 release; TRAC/TRBC; 0 nM VLD; T2 [9]: 306 pg/mL | IL2 release; TRAC/TRBC; 0.005 nM VLD; T2 [9]: 196 pg/mL | IL2 release; TRAC/TRBC; 0.05 nM VLD; T2 [9]: 198 pg/mL | IL2 release; TRAC/TRBC; 0.5 nM VLD; T2 [9]: 248 pg/mL | IL2 release; TRAC/TRBC; 5 nM VLD; T2 [9]: 351 pg/mL | IL2 release; TRAC/TRBC; 50 nM VLD; T2 [9]: 764 pg/mL | IL2 release; TRAC/TRBC; 500 nM VLD; T2 [9]: 1200 pg/mL | IFN-gamma release; TRAC/TRBC; 50 nM VLD; T2 [10]: 23600 | IFN-gamma release; TRAC/TRBC; 500 nM VLD; T2 [10]: 31600 | IFN-gamma release; only TRAC; 50 nM VLD; T2 [10]: 23700 | IFN-gamma release; only TRAC; 500 nM VLD; T2 [10]: 27500
B1: TCR-G (WT1-specific T-cell receptor) (TCR, V domains shown)
V domain 1: DQQVKQNSPSLSVQEGRISILNCDYTNSMFDYFLWYKKYPAEGPTFLISISSIKDKNEDGRFTVFLNKSAKHLSLHIVPSQPGDSAVYFCAARGQGNLIFGKGTKLSVKP
V domain 2: EAGVAQSPRYKIIEKRQSVAFWCNPISGHATLYWYQQILGQGPKLLIQFQNNGVVDDSQLPKDRFSAERLKGVDSTLKIQPAKLEDSAVYLCASSLYRGEQYFGPGTRLTVTE
notes: also called AV15-TCR-G
